From patent US20170260251A1 (ANSUN BIOPHARMA, published 2017)

Assays:
human plasmin = human plasmin (human, UniProt P00747 97-810); assay: protease inhibition constant Ki, human enzyme
[1] = molecular target: T1, human coagulation factor VIIa (human, UniProt P08709 61-466); assay: protease inhibition constant Ki, human enzyme
T1 sequence (looked up): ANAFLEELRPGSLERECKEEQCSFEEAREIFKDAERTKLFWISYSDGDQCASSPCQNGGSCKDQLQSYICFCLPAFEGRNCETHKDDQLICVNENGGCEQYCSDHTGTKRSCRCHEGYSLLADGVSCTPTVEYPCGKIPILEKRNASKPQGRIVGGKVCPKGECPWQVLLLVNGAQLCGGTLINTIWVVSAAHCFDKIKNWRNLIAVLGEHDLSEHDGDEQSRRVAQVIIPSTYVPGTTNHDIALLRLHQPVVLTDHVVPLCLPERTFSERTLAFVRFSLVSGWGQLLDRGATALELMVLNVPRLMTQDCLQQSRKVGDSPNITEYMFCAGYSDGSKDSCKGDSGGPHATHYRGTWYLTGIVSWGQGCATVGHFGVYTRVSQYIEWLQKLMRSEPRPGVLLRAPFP

human kallikrein = human kallikrein (human, UniProt P03952 20-638, limits assumed); assay: protease inhibition constant Ki, human enzyme
[2] = molecular target: human coagulation factor Xa (human, UniProt P00742 41-179; P00742 235-488, limits assumed); assay: protease inhibition constant Ki, human enzyme
human thrombin = human thrombin (human, UniProt P00734 328-622); assay: protease inhibition constant Ki, human enzyme
mouse plasmin = molecular target: T2, mouse plasmin (mouse, UniProt P20918 98-812); assay: protease inhibition constant Ki, mouse enzyme
T2 construct: also called Plasmin (mice)

mouse thrombin = molecular target: T3, mouse thrombin (mouse, UniProt P19221 325-618); assay: protease inhibition constant Ki, mouse enzyme
T3 construct: also called Thrombin (mice)

[3] = molecular target: T4, mouse coagulation factor IXa (mouse, UniProt P16294 47-192; P16294 237-471); assay: protease inhibition constant Ki, mouse enzyme
T4 construct: also called IXa (mice)

mouse kallikrein = molecular target: T5, mouse kallikrein (mouse, UniProt P26262 20-638, limits assumed); assay: protease inhibition constant Ki, mouse enzyme
T5 construct: also called Kallikrein (mice)

[4] = molecular target: T6, mouse coagulation factor Xa (mouse, UniProt O88947 41-180; O88947 232-481, limits assumed); assay: protease inhibition constant Ki, mouse enzyme
T6 construct: also called Xa (mice)
T6 sequence (O88947 41-180 limits assumed, chain 1 of 2): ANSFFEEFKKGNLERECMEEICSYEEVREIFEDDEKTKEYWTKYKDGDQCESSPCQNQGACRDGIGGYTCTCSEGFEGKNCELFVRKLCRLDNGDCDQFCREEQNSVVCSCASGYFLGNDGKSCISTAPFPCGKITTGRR
T6 sequence (O88947 232-481 limits assumed, chain 2 of 2): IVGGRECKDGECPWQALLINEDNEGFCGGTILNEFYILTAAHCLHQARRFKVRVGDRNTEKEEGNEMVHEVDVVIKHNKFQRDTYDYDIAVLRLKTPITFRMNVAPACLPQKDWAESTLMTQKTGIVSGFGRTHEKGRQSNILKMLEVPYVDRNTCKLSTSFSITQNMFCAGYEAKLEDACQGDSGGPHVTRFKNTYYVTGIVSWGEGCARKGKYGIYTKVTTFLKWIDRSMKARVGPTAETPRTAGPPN

T2 sequence (P20918 98-812 limits assumed): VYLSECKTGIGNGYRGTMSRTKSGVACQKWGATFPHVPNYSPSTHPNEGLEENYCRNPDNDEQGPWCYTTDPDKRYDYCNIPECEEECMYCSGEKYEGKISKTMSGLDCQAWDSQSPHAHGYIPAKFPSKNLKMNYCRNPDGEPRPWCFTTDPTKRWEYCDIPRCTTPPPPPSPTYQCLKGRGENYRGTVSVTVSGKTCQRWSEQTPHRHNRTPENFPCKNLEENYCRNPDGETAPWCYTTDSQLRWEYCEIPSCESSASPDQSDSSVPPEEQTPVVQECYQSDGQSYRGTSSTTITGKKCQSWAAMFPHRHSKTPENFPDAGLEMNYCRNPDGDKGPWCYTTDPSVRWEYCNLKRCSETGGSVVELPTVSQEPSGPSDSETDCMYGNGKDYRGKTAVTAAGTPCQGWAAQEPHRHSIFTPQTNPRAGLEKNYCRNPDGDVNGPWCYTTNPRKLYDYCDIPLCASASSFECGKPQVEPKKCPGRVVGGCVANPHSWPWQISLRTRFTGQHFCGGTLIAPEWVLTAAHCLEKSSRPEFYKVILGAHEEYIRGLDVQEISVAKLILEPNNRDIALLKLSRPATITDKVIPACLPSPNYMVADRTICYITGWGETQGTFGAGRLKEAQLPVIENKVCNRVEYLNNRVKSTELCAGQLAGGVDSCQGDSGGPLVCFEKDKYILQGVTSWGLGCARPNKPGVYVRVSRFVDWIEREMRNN
T4 sequence (P16294 47-192 limits assumed, chain 1 of 2): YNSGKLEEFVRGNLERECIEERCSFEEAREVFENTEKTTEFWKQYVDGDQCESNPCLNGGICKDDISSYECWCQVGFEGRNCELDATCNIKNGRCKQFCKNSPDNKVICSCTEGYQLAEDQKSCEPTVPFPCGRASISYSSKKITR
T4 sequence (P16294 237-471 limits assumed, chain 2 of 2): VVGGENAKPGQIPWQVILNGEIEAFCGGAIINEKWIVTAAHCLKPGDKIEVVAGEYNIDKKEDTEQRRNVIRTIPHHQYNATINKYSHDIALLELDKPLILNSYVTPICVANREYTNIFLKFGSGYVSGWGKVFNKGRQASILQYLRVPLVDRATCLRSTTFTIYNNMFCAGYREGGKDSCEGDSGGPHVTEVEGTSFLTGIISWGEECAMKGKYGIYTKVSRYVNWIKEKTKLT
T5 sequence (P26262 20-638 limits assumed): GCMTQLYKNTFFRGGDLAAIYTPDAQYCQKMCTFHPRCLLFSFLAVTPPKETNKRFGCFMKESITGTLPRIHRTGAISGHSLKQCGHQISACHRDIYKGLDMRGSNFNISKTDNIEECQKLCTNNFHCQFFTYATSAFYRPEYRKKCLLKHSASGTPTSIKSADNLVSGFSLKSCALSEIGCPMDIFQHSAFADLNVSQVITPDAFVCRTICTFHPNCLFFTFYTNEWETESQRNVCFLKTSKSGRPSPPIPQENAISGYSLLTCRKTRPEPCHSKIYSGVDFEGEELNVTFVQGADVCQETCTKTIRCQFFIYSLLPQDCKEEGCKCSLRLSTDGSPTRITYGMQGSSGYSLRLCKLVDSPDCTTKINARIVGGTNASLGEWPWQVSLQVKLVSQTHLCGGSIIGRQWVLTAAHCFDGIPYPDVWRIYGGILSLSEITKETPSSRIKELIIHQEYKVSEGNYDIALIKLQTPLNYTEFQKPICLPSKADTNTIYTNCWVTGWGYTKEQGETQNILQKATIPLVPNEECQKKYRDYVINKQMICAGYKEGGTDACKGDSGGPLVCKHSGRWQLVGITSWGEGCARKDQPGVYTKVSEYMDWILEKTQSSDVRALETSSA
Chain of human kallikrein (P03952 20-638 limits assumed): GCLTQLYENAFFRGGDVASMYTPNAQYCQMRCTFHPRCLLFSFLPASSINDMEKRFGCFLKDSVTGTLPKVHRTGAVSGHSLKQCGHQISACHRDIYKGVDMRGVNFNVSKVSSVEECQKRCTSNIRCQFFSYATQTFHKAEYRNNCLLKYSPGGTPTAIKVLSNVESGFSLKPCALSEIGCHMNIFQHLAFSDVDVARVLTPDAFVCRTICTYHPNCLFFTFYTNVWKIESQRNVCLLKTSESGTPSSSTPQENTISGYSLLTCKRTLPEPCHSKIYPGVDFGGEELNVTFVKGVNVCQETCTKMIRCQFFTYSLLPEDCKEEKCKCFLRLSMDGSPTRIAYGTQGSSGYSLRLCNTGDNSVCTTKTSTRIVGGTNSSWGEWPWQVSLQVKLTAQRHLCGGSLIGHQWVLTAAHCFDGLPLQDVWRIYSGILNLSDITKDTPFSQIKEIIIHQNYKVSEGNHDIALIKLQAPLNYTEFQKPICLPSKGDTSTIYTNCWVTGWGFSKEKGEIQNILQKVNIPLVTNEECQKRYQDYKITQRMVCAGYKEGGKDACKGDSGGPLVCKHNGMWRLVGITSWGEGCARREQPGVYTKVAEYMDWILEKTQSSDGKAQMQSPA
Chain of human plasmin (P00747 97-810 limits assumed): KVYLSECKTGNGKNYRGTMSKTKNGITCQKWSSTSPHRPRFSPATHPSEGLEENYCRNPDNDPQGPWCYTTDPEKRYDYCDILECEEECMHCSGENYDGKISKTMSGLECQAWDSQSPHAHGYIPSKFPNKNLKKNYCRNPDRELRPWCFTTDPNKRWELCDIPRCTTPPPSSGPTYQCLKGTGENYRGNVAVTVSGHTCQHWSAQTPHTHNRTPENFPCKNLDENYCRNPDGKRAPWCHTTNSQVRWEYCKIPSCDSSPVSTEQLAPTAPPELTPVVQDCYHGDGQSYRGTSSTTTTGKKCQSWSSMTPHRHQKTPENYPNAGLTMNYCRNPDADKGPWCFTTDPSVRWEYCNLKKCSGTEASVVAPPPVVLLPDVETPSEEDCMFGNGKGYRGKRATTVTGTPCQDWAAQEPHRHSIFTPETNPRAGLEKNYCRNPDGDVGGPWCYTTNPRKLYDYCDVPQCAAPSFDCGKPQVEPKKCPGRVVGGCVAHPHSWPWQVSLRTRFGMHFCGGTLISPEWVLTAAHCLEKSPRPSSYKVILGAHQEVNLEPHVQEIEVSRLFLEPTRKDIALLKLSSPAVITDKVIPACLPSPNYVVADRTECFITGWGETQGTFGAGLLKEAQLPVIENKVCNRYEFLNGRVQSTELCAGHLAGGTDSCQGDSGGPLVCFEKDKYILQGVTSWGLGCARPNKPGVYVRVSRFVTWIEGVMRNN
Chain of human coagulation factor Xa (P00742 41-179 limits assumed, chain 1 of 2): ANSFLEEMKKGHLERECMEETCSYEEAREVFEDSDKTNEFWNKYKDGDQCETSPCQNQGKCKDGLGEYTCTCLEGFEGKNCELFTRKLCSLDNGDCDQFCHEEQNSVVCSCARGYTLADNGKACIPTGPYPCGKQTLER
Chain of human coagulation factor Xa (P00742 235-488 limits assumed, chain 2 of 2): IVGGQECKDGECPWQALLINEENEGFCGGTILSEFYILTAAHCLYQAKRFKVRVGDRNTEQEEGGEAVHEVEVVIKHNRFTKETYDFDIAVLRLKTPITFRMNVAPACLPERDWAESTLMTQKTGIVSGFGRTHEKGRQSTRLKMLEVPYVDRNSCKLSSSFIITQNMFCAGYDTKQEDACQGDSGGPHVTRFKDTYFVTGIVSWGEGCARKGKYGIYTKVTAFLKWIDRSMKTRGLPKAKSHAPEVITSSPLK

- Ki (human plasmin): 18700 pM
- Ki [1]: 200 pM
- Ki (human kallikrein): 70 pM
- Ki [2]: 200 pM
- Ki (human thrombin): 1600 pM
- Ki (mouse plasmin): 1200 pM
- Ki (mouse thrombin): 11600 pM
- Ki [3]: 600 pM
- Ki (mouse kallikrein): 200 pM
- Ki [4]: 200 pM
B1: Ecotin variant NB141 (M84R/S82H) (other)
chain: AESVQPLEKIAPYPQAEKGMKRQVIQLTPQEDESTLKVELLIGQTLEVDCNLHRLGGKLENKTLEGWGYDYYVFDKVSSPVHTRMACPDGKKEKKFVTAYLGDAGMLRYNSKLPIVVYTPDNVDVKYRVWKAEEKIDNAVVR
